Assay results taken from patent US20150203825A1, “Laccase of Podospora Anserina and Uses of Same” (priority 2012, published 2015).

Experiments:
[1] = substrate: CCn1c(=NN=c2sc3cc(S(=O)(=O)O)ccc3n2CC)sc2cc(S(=O)(=O)O)ccc21; assay: purified protein, by the assay type; conditions: other: ABTS 0 to 1.5 mM, 0.1 M citrate/phosphate buffer, pH 3.4, 37° C.
[2] = substrate: COc1cc(/C=N/N=C/c2cc(OC)c(O)c(OC)c2)cc(OC)c1O; assay: Enzymatic test, oxidation of syringaldazine (SGZ) (stationary-phase kinetics); assay type: biochemical, Podospora anserina; conditions: other: SGZ 0 to 50 μM (diluted in methanol), citrate-phosphate 50 mM buffer, pH 7, 37° C., 530 nm
Procedure: The enzymatic tests are carried out using a Varian spectrophotometer in a 0.1 M citrate/phosphate buffer at 37° C. in a volume of 3 ml by monitoring the oxidation of various substrates at a given wavelength as a function of time. The specific activity of the enzyme is expressed in μmol of substrates oxidized per minute and per mg of protein.
The experiments are carried out at 37° C. on a Varian spectrophotometer in a citrate-phosphate 50 mM buffer, pH 7. The concentration of SGZ, diluted in methanol, varies in the test from 0 to 50 μM. The test, initiated by the addition of enzyme, consists in monitoring the oxidation of the SGZ at 530 nm by colorimetric change (ε530nm=64 mM^−1 cm^−1).

[3] = Enzymatic activity (SGZ oxidation) in the presence of NaCl; assay type: biochemical; conditions: 150 mM of NaCl, SGZ oxidation at 530 nm, 37° C., 50 mM phosphate-citrate buffer, pH 7
Procedure: In order to verify the influence of sodium chloride (present in a physiological medium) on the activity of the laccase, increasing concentrations of NaCl were added to the activity test consisting in monitoring the oxidation, at 530 nm, of the SGZ at 37° C. in a 50 mM phosphate-citrate buffer, pH 7.

[4] = Electrochemical measurements, enzymatic electrode with redox polymer, reduction of O2; conditions: pH 7, in the presence of Cl
From the text: At pH 7 and in the presence of Cl, the catalytic current for the reduction of O2 is 40% greater for the electrode modified with the novel enzyme. In addition, the stability over time is 200% greater.

B1: Podospora anserina laccase, SEQ ID No. 3 (Podospora anserina S mat+) (protein)
chain: SVARKDWESPTYSWLYQFPLPIPPVKTPKLTVTNLVTGNPIHYYEVYINRFTQQVYPNKGPATLVGYDGISPGPTFIVERGHEAVVRFVNNASIENSVHLHGSYSRAPWDGWAEDVTMPGEFKDYYYPNQQAARFLWYHDHAFMHTAENAYFGQAGAYIIHDPAEDALNLPSGYGVHDIPLVLSSKQYNNNGSLFTTNGETDSLFGDVIHVNGQPWPYFNVEPRKYRLRFLDAAVSRTFKLYFQRQTGSSAKIPFQVIATDAGLMASPATTNDLYISMGERYEVVFDFSPFAGQNITLRNTDDVGQDDDYLHTNKVMRFIVGNTPVTDTSSIPSTLATVDWPTSDGTGVDRHFKFDRSNGEWQINGVVFADVNNRVLANVPRGKVEIWELENGGGGWSHPIHIHLVDFKVLWRSNDDGRPVYNYEAQGLKDVVWLAPNEIVRVEAHYAPWDGVYMFHCHNLIHEDHDMMAAFNVTALTDLGYNETAFRDPMEARWRAEPVTAAKFTTAAITEKIQFMAGLQPYNNVEEVLEVLDEYWATHSKRDAQDPAPKTRRMRIEGGKVKEVR
notes: purified
B1 showed a Km [1] of 307 µM, a kcat [1] of 1372 s⁻¹ and a Km [2] of 10.9 µM. It also gave a kcat [2] of 1.3 s⁻¹.

B2: laccase of SEQ ID No. 3: Podospora anserina laccase of SEQ ID No. 1 with an additional N-terminal serine, expressed in Pichia pastoris from the pFD56 vector (protein, listed as Podospora anserina)
chain: B1 chain
In the case of B2, the “oxidation activity still exhibited in the presence of NaCl” value [3] is reported as 70%, the “catalytic current for the reduction of O2, greater than electrode with laccase of Trametes versicolor” value [4] is reported as 40% and the “stability over time, greater than electrode with laccase of Trametes versicolor” value [4] is reported as 200%.
